The target in the assay is SARS-CoV-1 S-2P (SARS-CoV-1).

Turning to CV3-25 (antibody), the IC50 of neutralisation of SARS-CoV-1 pseudovirus is 2.1 µg/mL.

These data come from paper PMC8216847.
